Measured values: article PMC10681739, “High-throughput data and modeling reveal insights into the mechanisms of cooperative DNA-binding by transcription factor proteins”

T1: ETS1 x2 (Homo sapiens, UniProt P14921)
T1 sequence: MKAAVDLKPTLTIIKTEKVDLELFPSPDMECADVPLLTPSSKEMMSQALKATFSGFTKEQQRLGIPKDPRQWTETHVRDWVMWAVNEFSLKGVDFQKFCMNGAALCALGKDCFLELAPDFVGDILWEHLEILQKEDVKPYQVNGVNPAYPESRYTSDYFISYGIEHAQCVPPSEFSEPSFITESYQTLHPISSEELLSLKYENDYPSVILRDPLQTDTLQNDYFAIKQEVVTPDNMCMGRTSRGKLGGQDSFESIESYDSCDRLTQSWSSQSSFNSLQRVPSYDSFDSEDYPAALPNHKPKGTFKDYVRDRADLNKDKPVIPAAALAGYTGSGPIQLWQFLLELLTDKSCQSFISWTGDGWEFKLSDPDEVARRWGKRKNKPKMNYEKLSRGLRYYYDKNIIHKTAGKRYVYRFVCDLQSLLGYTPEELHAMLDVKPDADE

B1: Table S4 A row 2542 (dsDNA)
DNA 1: GGGAAACTCCACAGGAAACGGAAATGGTCTCTCCCA
DNA 2: TGGGAGAGACCATTTCCGTTTCCTGTGGAGTTTCCC
B2: Table S4 A row 1195 (dsDNA)
DNA 1: GGCGTCGCCGCCGGATTCGACTTCCTGACGTCAGGC
DNA 2: GCCTGACGTCAGGAAGTCGAATCCGGCGGCGACGCC
B3: Table S4 A row 2527 (dsDNA)
DNA 1: GCCTGAAGCCGGAAGACTATAGCTTCCCGGCATGCA
DNA 2: TGCATGCCGGGAAGCTATAGTCTTCCGGCTTCAGGC
B4: Table S4 A row 2446 (dsDNA)
DNA 1: TCCCACCGTCCCATCCGCTACTTCCCGAAAACTCAA
DNA 2: TTGAGTTTTCGGGAAGTAGCGGATGGGACGGTGGGA
B5: Table S4 A row 1324 (dsDNA)
DNA 1: TTGAATGGACCTCATCCTGCTTCCTGCTCTTTGCAG
DNA 2: CTGCAAAGAGCAGGAAGCAGGATGAGGTCCATTCAA
B6: Table S4 A row 2174 (dsDNA)
DNA 1: CAGCACGGGCCGCTTCCTTATCCGGTAAAGTGCGGG
DNA 2: CCCGCACTTTACCGGATAAGGAAGCGGCCCGTGCTG
B7: Table S4 A row 180 (dsDNA)
DNA 1: AGCAATACCAGGAAATGTGTTGCTTCCTAAAGTGAT
DNA 2: ATCACTTTAGGAAGCAACACATTTCCTGGTATTGCT
B8: Table S4 A row 2116 (dsDNA)
DNA 1: CCCAGCGGGCGAACTTCCTTTCCGCGCAACTCGCCC
DNA 2: GGGCGAGTTGCGCGGAAAGGAAGTTCGCCCGCTGGG
B9: Table S4 A row 1809 (dsDNA)
DNA 1: AGGGCAGGATGCCAAGATGAACTACATTTCCTGGCA
DNA 2: TGCCAGGAAATGTAGTTCATCTTGGCATCCTGCCCT
B10: Table S4 A row 2604 (dsDNA)
DNA 1: AGGGGGCGGCGGCGGATGCCGGAAGAGTGCCCGCCC
DNA 2: GGGCGGGCACTCTTCCGGCATCCGCCGCCGCCCCCT
B11: Table S4 A row 376 (dsDNA)
DNA 1: CGTGACACTTCTTTTCCTGTTTCCTGGGTCTCACCA
DNA 2: TGGTGAGACCCAGGAAACAGGAAAAGAAGTGTCACG
B12: Table S4 A row 1239 (dsDNA)
DNA 1: GGGAGGCCCTGCAGGAAGCAGGATGTTGACCCGGAG
DNA 2: CTCCGGGTCAACATCCTGCTTCCTGCAGGGCCTCCC
B13: Table S4 A row 1550 (dsDNA)
DNA 1: AAGTTGGGCCTGACTTCCTTCCTGTGGGGTTGCAGC
DNA 2: GCTGCAACCCCACAGGAAGGAAGTCAGGCCCAACTT
B14: Table S4 A row 1821 (dsDNA)
DNA 1: TAATCTGCAACTTCCCTGTTCTTCCTGTTAGATGTG
DNA 2: CACATCTAACAGGAAGAACAGGGAAGTTGCAGATTA
B15: Table S4 A row 1258 (dsDNA)
DNA 1: CCATCAGCAAACATCCCACCGGATGTTTTCTTAAGC
DNA 2: GCTTAAGAAAACATCCGGTGGGATGTTTGCTGATGG
B16: Table S4 A row 677 (dsDNA)
DNA 1: ACAGCCCCGCCCGCTTCCTTCCTGCCTTCTCCACGT
DNA 2: ACGTGGAGAAGGCAGGAAGGAAGCGGGCGGGGCTGT
B17: Table S4 A row 2210 (dsDNA)
DNA 1: AAAACACCCGGATGGAGTCGCACTTCCCGAGTCTCG
DNA 2: CGAGACTCGGGAAGTGCGACTCCATCCGGGTGTTTT
B18: Table S4 A row 1500 (dsDNA)
DNA 1: CTCGTCGCCAGGGGAAGTGCTTCCTGCTGACAGGTC
DNA 2: GACCTGTCAGCAGGAAGCACTTCCCCTGGCGACGAG
B19: Table S4 A row 2126 (dsDNA)
DNA 1: ACGCGAAAGCCCGGATAGACTTCCGCGCAGGGGCGG
DNA 2: CCGCCCCTGCGCGGAAGTCTATCCGGGCTTTCGCGT
B20: Table S4 A row 1545 (dsDNA)
DNA 1: CTTCGAAGAGATTTCCTCCCGGAAAGGCCGAGCATT
DNA 2: AATGCTCGGCCTTTCCGGGAGGAAATCTCTTCGAAG
B21: Table S4 A row 548 (dsDNA)
DNA 1: GCGCACCGAAACGGAAGAACTTCCTTGATTAGCATA
DNA 2: TATGCTAATCAAGGAAGTTCTTCCGTTTCGGTGCGC
B22: Table S4 A row 834 (dsDNA)
DNA 1: AAGGCAGGAGGATGTGCTCGCGGTTTCCTGTGATGT
DNA 2: ACATCACAGGAAACCGCGAGCACATCCTCCTGCCTT
B23: Table S4 A row 2690 (dsDNA)
DNA 1: CGGGCCTCCGCCTTCCGCCCGGAACCCACCCCCGGG
DNA 2: CCCGGGGGTGGGTTCCGGGCGGAAGGCGGAGGCCCG
B24: Table S4 A row 2556 (dsDNA)
DNA 1: CGCGCCGGACCGGAAAGCCGGGGAAGTGGCCGAGGA
DNA 2: TCCTCGGCCACTTCCCCGGCTTTCCGGTCCGGCGCG
B25: Table S4 A row 2241 (dsDNA)
DNA 1: GCGGCCTCCAAACATCCTCCGGAAGCTGCCACCTAC
DNA 2: GTAGGTGGCAGCTTCCGGAGGATGTTTGGAGGCCGC
B26: Table S4 A row 1015 (dsDNA)
DNA 1: AGAAGCCACCACAGGAAACGGAAGAAGCCACCTCTG
DNA 2: CAGAGGTGGCTTCTTCCGTTTCCTGTGGTGGCTTCT
B27: Table S4 A row 1213 (dsDNA)
DNA 1: ACAATATCCCAGGAAACAGACATCCGCGTGCTCGCG
DNA 2: CGCGAGCACGCGGATGTCTGTTTCCTGGGATATTGT
B28: Table S4 A row 2434 (dsDNA)
DNA 1: AGCAACAACGTCACTTCCCTTCCGGACCACAAGGGG
DNA 2: CCCCTTGTGGTCCGGAAGGGAAGTGACGTTGTTGCT
B29: Table S4 A row 2304 (dsDNA)
DNA 1: GCGGCCTGACGGGAAACGTAGTTTCCGGGGCCAAGA
DNA 2: TCTTGGCCCCGGAAACTACGTTTCCCGTCAGGCCGC
B30: Table S4 A row 1712 (dsDNA)
DNA 1: CACGAGTCCAGGAAACAAGTGCTTCCTGCCTATGGG
DNA 2: CCCATAGGCAGGAAGCACTTGTTTCCTGGACTCGTG
B31: Table S4 A row 2212 (dsDNA)
DNA 1: CTGGGCCAGGCGGAAGCTCTGCTTCCGCATGCTGGG
DNA 2: CCCAGCATGCGGAAGCAGAGCTTCCGCCTGGCCCAG
B32: Table S4 A row 1614 (dsDNA)
DNA 1: GTTCTTCGACCCGGATGCGCTTCCTAATAAAACGGC
DNA 2: GCCGTTTTATTAGGAAGCGCATCCGGGTCGAAGAAC
B33: Table S4 A row 1655 (dsDNA)
DNA 1: CCGCGGGGTCCGGAACTGCTTGTTCCGGCAGTGGAA
DNA 2: TTCCACTGCCGGAACAAGCAGTTCCGGACCCCGCGG
B34: Table S4 A row 382 (dsDNA)
DNA 1: AGGAGGGAGGGAGCTTCCTTCCTGTTCTCTGAAGGC
DNA 2: GCCTTCAGAGAACAGGAAGGAAGCTCCCTCCCTCCT
B35: Table S4 A row 2151 (dsDNA)
DNA 1: AGGGCTCAGAGGCGGAAGCGGAAGCACATTCTGTCA
DNA 2: TGACAGAATGTGCTTCCGCTTCCGCCTCTGAGCCCT
B36: Table S4 A row 136 (dsDNA)
DNA 1: TCTTTTGATTGGGCTTCCTTCCTGTGTTTTCTCAGA
DNA 2: TCTGAGAAAACACAGGAAGGAAGCCCAATCAAAAGA
B37: Table S4 A row 502 (dsDNA)
DNA 1: CAGAGCAGCAGGAAACCATTATTTCCTCCTAGGTCT
DNA 2: AGACCTAGGAGGAAATAATGGTTTCCTGCTGCTCTG
B38: Table S4 A row 126 (dsDNA)
DNA 1: CACTGCACACTTCCTAGCAGGCTTCCTGTGTAGCTG
DNA 2: CAGCTACACAGGAAGCCTGCTAGGAAGTGTGCAGTG
B39: Table S4 A row 110 (dsDNA)
DNA 1: TTGAGGGCTGGGCGGAAACGGAAAAGGCTAAGGGCC
DNA 2: GGCCCTTAGCCTTTTCCGTTTCCGCCCAGCCCTCAA
B40: Table S4 A row 356 (dsDNA)
DNA 1: TTGGGCCATTGTTTTCCTGCTTCCTCCCTTCAAGCC
DNA 2: GGCTTGAAGGGAGGAAGCAGGAAAACAATGGCCCAA
B41: Table S4 A row 700 (dsDNA)
DNA 1: TGGGTGACACTCCTTCCGCCTTCCGTGACCCCCATC
DNA 2: GATGGGGGTCACGGAAGGCGGAAGGAGTGTCACCCA
B42: Table S4 A row 1205 (dsDNA)
DNA 1: CTTAAACTGGAGGAAGTAAGTTTCCGTTAAAATGTG
DNA 2: CACATTTTAACGGAAACTTACTTCCTCCAGTTTAAG

Molecular target: T1, ETS1 x2
Test: gcPBM; 10 nM ETS1
Settings: tags: N-terminal GST (pDEST15), kept (PMC6008103); chain copies: 2; label: surface-attached array probe

| Binder | binding signal |
| --- | --- |
| B1 | 4020 PBM fluorescence, median of replicate spots |
| B2 | 1940 PBM fluorescence, median of replicate spots |
| B3 | 3700 PBM fluorescence, median of replicate spots |
| B4 | 1300 PBM fluorescence, median of replicate spots |
| B5 | 3130 PBM fluorescence, median of replicate spots |
| B6 | 2460 PBM fluorescence, median of replicate spots |
| B7 | 1370 PBM fluorescence, median of replicate spots |
| B8 | 2660 PBM fluorescence, median of replicate spots |
| B9 | 1160 PBM fluorescence, median of replicate spots |
| B10 | 1530 PBM fluorescence, median of replicate spots |
| B11 | 4760 PBM fluorescence, median of replicate spots |
| B12 | 2610 PBM fluorescence, median of replicate spots |
| B13 | 5110 PBM fluorescence, median of replicate spots |
| B14 | 2270 PBM fluorescence, median of replicate spots |
| B15 | 5080 PBM fluorescence, median of replicate spots |
| B16 | 3660 PBM fluorescence, median of replicate spots |
| B17 | 1250 PBM fluorescence, median of replicate spots |
| B18 | 4140 PBM fluorescence, median of replicate spots |
| B19 | 2080 PBM fluorescence, median of replicate spots |
| B20 | 1350 PBM fluorescence, median of replicate spots |
| B21 | 2740 PBM fluorescence, median of replicate spots |

| Binder | binding signal |
| --- | --- |
| B22 | 1650 PBM fluorescence, median of replicate spots |
| B23 | 1830 PBM fluorescence, median of replicate spots |
| B24 | 3050 PBM fluorescence, median of replicate spots |
| B25 | 2030 PBM fluorescence, median of replicate spots |
| B26 | 3380 PBM fluorescence, median of replicate spots |
| B27 | 1480 PBM fluorescence, median of replicate spots |
| B28 | 3480 PBM fluorescence, median of replicate spots |
| B29 | 4630 PBM fluorescence, median of replicate spots |
| B30 | 3840 PBM fluorescence, median of replicate spots |
| B31 | 4240 PBM fluorescence, median of replicate spots |
| B32 | 5240 PBM fluorescence, median of replicate spots |
| B33 | 1230 PBM fluorescence, median of replicate spots |
| B34 | 3590 PBM fluorescence, median of replicate spots |
| B35 | 3300 PBM fluorescence, median of replicate spots |
| B36 | 2710 PBM fluorescence, median of replicate spots |
| B37 | 2360 PBM fluorescence, median of replicate spots |
| B38 | 4970 PBM fluorescence, median of replicate spots |
| B39 | 2150 PBM fluorescence, median of replicate spots |
| B40 | 1590 PBM fluorescence, median of replicate spots |
| B41 | 2820 PBM fluorescence, median of replicate spots |
| B42 | 1760 PBM fluorescence, median of replicate spots |
